The values below come from a protein production outcome set (Wang et al. 2014).
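Note: failed if final PepcDB status was selected cloned or expressed and not failed if soluble or beyond.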

This series in a line: label from the status in PepcDB records.
As for “MLTRPMGEGYIQYLRLSKETTQPADSKIPGLWSSSVRPEFCCIYRVPDRLRKVNPEAYTPQMLLIGPLHHSKKAEALKRYKTDLRYLNYLNMELHKKKCLDSIADIYGDQPVKEFRRIIEINEKFIRDSYAESTIWINTKDFVEMILHDSVFILLFFIQTGSTLNFNKKEDILFNQSRLINATAILEDLILLENQLPYALLEKLFEPFSSNVNTKETFRDITLRAFRFEGKIKEEVRFQHFTDLFRCVRVSTLSLTEEQINIAKNEPPKSRKIMYNADKLDSAGVNFVNVDEENDLSLVITFKDGILKMPCFTVEDNTERVVRNLMALEQCHYPRTTFVCDYISFLDFLINTDQDVDLLAKKGIVKNWLGHQGSVTEMVNKLCLGLVDFGSHYSDIVENLNKHYDNRLNRSVGTLRRVYFKDLWTGTATIAAVVLLVLTLIQTVASILQVMMQNDNKSPPPPAPSRGL”, the protein production result is reported as “failed”.
The entry for “MLTVIAEIRTRPGQHHRQAVLDQFAKIVPTVLKEEGCHGYAPMVDCAAGVSFQSMAPDSIVMIEQWESIAHLEAHLQTPHMKAYSEAVKGDVLEMNIRILQPGI” is “not failed”; for “MLVALITLAFIHFCALITPGPDFFLVSQTAVSRSRKEAMLVVAGITAGVMFWASLALMGLNIIFEKMAWLKQGLLIAGGLYLCWLGYQMLRSAFSKNQQEEVTTVELPKAPYLFFMKGLLTNLSNPKAVIYFGSVFSLFLANPQLDQVHWLLFIIVSVETILWFCFVTFIFSLPSFRAAYRNFSKWIDGISGGIFTVFGIFLIGNR” it is “failed”.
For “MLVKININGKKKSVDIEPEEYLVDTLRKVGNLSVKRGCDTGCCGLCTVLIDKKPTLSCATLTLRALDKEITTIEGLENEVKEFSEVLVKEGAEQCGFCSPGFILTVLAMKDELENPTDDEIKHYLTGNLCRCTGYMGQLRAIKTYLEVK”, the protein production result is reported as “failed”.
Consider “MLVMIDTKRPPVYIDSQVGLNTFFLIRGRYPSLNLFVSFITTVKTLGNNVSRTHGDDAESDRVSNVDENNEAVDEQDNIEDDKTDEDEKEGDNEDGDGYDDYQGDDESMGGSTLDPTIDGSESSDEDCDYNKWNDVIVEEYGMLRRTSFSHQGNSVVCWQSVRTQVSVYLTEITFLTRVTVHQL”, for which the protein production entry was “failed”.
The entry for “MLVNGKWTADWQPVQKADDHGRFVRQVSSFRNWITPDGSAGPTGTGGFAAEAGRYRLYVALICPWASRTLMARRLKGLDGLIPVTVVNPVMGTQGWEFGGHDDAEEDPLFGARHLHEIYTRAEPQFTGRATVPVLWDMKRDAMVNNESADILRMFDTAFEGLAPSDLRLYPAALAGEIDALNAQVYDRLNNGVYKAGFASTQEAYDEAVAGVFEMLDHLEYRLTGDYIFGGALTETDIRIFVTLIRFDAAYHGLFKTNRRQIADYPRLWAYMRRILARPGVRETVNMDHITRGYYSIKALNPSRIRPVGPAHIEAALRETAAGI” is “not failed”; for “MLVQAIMTSPAITVTASASVAEAARLMLDNRISGLPVVGANGALVGIVSEGDFLRRSELSTERKRSWLLEWLTSSGRIAAEYVRTHGRRVEEVMTAPVSAIAPTASLSDAVRLMERQEIKRLPVVEGGRLVGIVARSDLLRALSQALPATSTSAGDAQIQAAIEAALAKQSWSRNGFIHSRVTDGIAELTGTVFDERERLAAKVAVENVAGVTSVKDQLVWVDPYYGIALPPPDAETSQA” it is “failed”; for “MLVRTLSALECTKVLTANRVGRLACAKDGQPYVVPLYYAYSDAHLYAFSMPGKKIEWMRANPRVSVQVDEHGQGRGWKSVVVDGRYEELPDLIGHKLQRDHAWSVLSKHTDWWEPGALKPVTPPTADSAPHVFFRILIEQVSGREASE” it is “not failed”.
The entry for “MLVTSLVVKPALSTTLKMCTFSTLSAFVLTACSGNAETTNVAEIQHDMGSATAAASPKATAPEGTVLKRSAIDALQTVGNSIGIKIGSHLELGSAADFEKGNTTKVSIDAECFDMTSSSKAFIVACSDGVHSVDPVSGKNSVIAQPTETAHYAVQVSTGEVLVAHRDSNKVEVFNDGEKLSEVATEYGSDQLISVPIEGQADAVVRINNKYTLIQDVNWKESKPGAILRVGKGVGRISAAKQGVVLASDAKKNQFAVYGAKDVIRLHQTSPTGPSPWGITWDNKHDLAWVATTGDNKVTGYDISSGTGSEKSSYNTIENVHNIAVLDDGTLVLASASGAGLQLVKSQTD” is “failed”; for “MLVWEELREKALNKIYHDKEIGYLDPDILGFLLAFYRNRNDVYTQSSCSGRITIVDAEMPWDRKNSTIIFKNHLRITEQDLEDVLSKNQVRRLWLIVQGPIIHIYAKNIETGWDILKIAREAGFKHSGILATNQKGVLVELRTGIRMVHLLRESNTERVDKDKIKTLVNVCNEVLARGKQKMNLLKDLLSSSSNNSMELGKNSKLKTPI” it is “not failed”; for “MLWRKRLFAHLYPGLSARHEALVAERKRALFREALRRARPERVLEIGPGPGTNLAHLPEGVAYLALEPNPFFHPRLREEARKRGLALTLLPGRAEAIPLPGGSVDLVVATLVLCSVADPEKAIEEVHRVLRPGGAYLFLEHVAAPKGAPLRLLQEAATPFFVFFGDGCHPNRKTLAQIQARFPRVEAEAFSLPLPVVAPHVAGLAFKELEHHHHHH” it is “failed”.
The entry for “MLYIFTPTFNRGYRLSYLYDSLCNQTNKNFIWLIVDDGSEDSTKEIVSNYIKENKVSIVYLYKRNGGKHSAYNLAMRYMQPSDYHVCVDSDDWLLEDAVEIIFKDLESLTLSNRYVGLVYPRYSLNQGNNWLNPKILEVNIPDLKYKYHLKIETCIVINNAYLVDFEFPCFEGENFLSEEIMYIYLSKKGYFCPQNRKIYCFDYLEDGLTSNIFKLWRKNFKGTIFSLENSYMYVMSFPNIFDRWWSAIKIKMNIQALKMTTLGVIPTLKSEEAGWKILLGFSYLWKVARFKKSELEHHHHHH” is “not failed”; for “MMDTVKNRRTIRKYQQKDITPDLLNDLLETSFRASTMGGMQLYSVVVTRDAEKKEILSPAHFNQPMVKEAPVVLTFCADFRRFCKYCQERNAVPGYGNLMSFLNAAMDTLLVAQTFCTLAEEAGLGICYLGTTTYNPQMIIDALHLPELVFPITTVTVGYPAESPKQVDRLPIEGIIHEESYHDYTAEDINRLYAYKESLPENKLFIEENQKETLPQVFTDVRYTKKDNEFMSENLLKVLRRQGFMD” it is “not failed”; for “MMDYALLSLMLLFTLLLAFILTRLKVSPVIAYLLGGLISFNYFHFDFNSSYFEILNFLALNLLAFEIGTSFDISRAKELFRRAMGIALTELILIVLISYFIGLYLLHLDLFASLFLVMASIDTSTSILYKIIGNKVDKNDRDLLVAVASVEDIEVFFLYSIAIALNGSFNVFRISFVILEVFIASLIIYAFAKYFLTGLSIFKFTSFEDESILILVPIVLVFVFEYISQVTQVPATLTMILAGIAFSSISGSEKVLRYTGPIREFSLIFFFLSVGSYLKITAGISTFVLISFIILAIKYFSFSTASWVSGTTLVKAFTNGLYMLPLSEFGIIVSLQALQQGIDIAIVYYISVVVVLVSSIIASILAVRVNVLQRVIGIVYSRSYFLRQLDSTIIWLNKTLSTNLSPILRSVLFRGFVKMFLYLILPYVLFPIINSIVKSIIDPINNLILQYLLYSGEIVIALFLLYLFLLEGSRLYSIINNEILVRIVRVRSRLFKEFWFGLTSFSSTFYTIILTIIYIIFEIIPLLYNFPIRLVFVPLLISLYFIYRYRAPPITYTRIDNKEADKIVKLSVKVIKKMRKRRSKRSIISTTKTVRREWS” it is “failed”.
For the sequence “MMEFNVAENGGGSYRPLAILRWVMVVIFVSFGMQKFTLQSAQGIAQFITNSPFISWLSIFGLRGEAYVLGVAEFAIAALLAAGSFSPVLSAVGSFMGVVTFAITWSFFFTTPGVVTWSLSSDPMAWNLTGEFLFKDIVLLCVCAVLFLASLPRSAIRLRTG”, the protein production result is “failed”.
As to “MMEKYNKFDLLWLLVPLSGLIVMGLMAVYSATNGSTESVPLFYKQLSWAVTGAIAASIIYFMDYRVVKDNAYFMYAAGIILLIAVLVFGKKVAGATSWVRFGMFSFQPSELTKMFTIIAMARFLSDDQTDIGNMMDLGKALAIALVPAGLIMLQPDMGTTLTCLSFIVPMIVLAGFDLYYILLGVVPVALMLSGFFNLTILATIAVLSMVMFFLLRKKFYLHQFLVTGGGLLGGLLTWKFTSVILKPHQIKRIQIFLDPTADPRGAGYNALQAKIAIASGGIFGKGFLHGTQTQLRYIPAQWTDFIFCVIAEELGFLGSTLLLLLFAALVLRLVWMVGAIKNRFVELLLAGYASLLLTHVVINIGMTIGVMPVIGVPLPFISYGGSSLVANMMMVGLAMNFSKNRRHIGY”, the protein production result is “failed”.
The entry for “MMEQEIWVRVTRAAAKRKASTAMGIDEDRLNKKRVFLGELLNVSNVNLLSNLN” is “failed”.
Turning to “MMFDFDKIIERQSDKCRKWDHAFVCSRFGDVPESFIPLWIADMDFTSPPAVIDGFRRIVEHGTFGYTWCFDEFYDAVIAFQRKRHQVEVEKSWITLTYGTVSTLHYTIQAYCKPGDSVMMNTPVYDPFAMAAQRQGVQVLANPLRVEENRYQLDFNLIEEQLKTYRPTLWFFCSPHNPSGRIWREEEIRQVSDLCQRYGTILVVDEVHAEHILDGKFVSCLTSGCAAQDNLIVLTSPNKALKLGGLKTSYSMIPDDSLRQRFRQQLEKNSITSPNLFGVWGIILAYQHGLPWLDALNDYLQGNARYLADALQTHFPAWKMMTPESSYLAWIDVSADESSATQLTQHFARQAGVVIEDGSHYVQNGENYLQINFGSQRYWLERSTNRMQ”, the protein production result is listed as “failed”.
To “MMFEGIRIARQMGHNIAIVSPRVDVIIEISHRIKDAFIDEHIDVLHQSSRQQYNGHFVIATIHQLLRFKQHFDTVFVDEVDAFPLSMDPQLSNAIQLASKSNHSHIFMTATPPRHFLKQFPPEKIIKLPARFHRSPLPIPKFKYFKLKSTRKQNLLLNIFRYQINQQRFTLVFINNIEIMNKMYQQYKMDIPDLICVHSEDDLRFEKIEALRRGQHKIVFTTTILERGFTMTHLDVVVVDAGSFQQEALIQIAGRVGRKQQSPSGLVLFLHEGVTLSMILAKRNIISMNRLAIKRGWIDA” belongs “failed”; to “MMFGRFSDRAQKMIYYAQEEAQNFKHGYVGTEHILLGILRDENGKAQSLLANMGVTIEKVRRLIEEYEGFGDSDLYKEEPPLTPRTKRLLEISLLEARNLNHNYINPEHVLLALIRESEGVAFTILGNLGVDFERLRKEILDSLS”, “failed”.
The entry for “MMILAWILVIIIISVITKWVVHLLTQRQSIYLTKLVITTSCIIQFIIVFFLMKAIVHYLAQALDVFYR” is “failed”; for “MMITLVLSSFLSRDNIMRGMIYLIIATILAAIGWGASKMVVMTIPGDIFIGTRFLLASFVLAPFCFKQFRTLTGKQILALSGVGLVLSFALQVWVYAVSITTSLAEGAFIMSLAMIIAPIISWILFRNKPNKAFWIALPISILGMILLTLGNGWKLEASQLGFMLSALLLSMHFVLNKRIIGAITPLLSICVQLFVVGLSGCLYASLNSHPSFEITQHAVFWFLISTIVATAIRYLAQTLGQFSVNIETASLIMILEPVWTLVLSISVLHEVVAPQKLIGGAVIFLSLFVYIKLSRRLK” it is “failed”; for “MMKRALTGIQASGKQHLGNYLGVMQSLIELQEQCQLFVFVADLHSITVDFQPQALKQNNFDLVRTLLAVGLDPQKACLFLQSDLLEHSMMGYLMMVQSNLGELQRMTQFKAKKAEQTRNPNGTLNIPTGLLTYPALMAGDILLYQPDIVPVGNDQKQHLELTRDLAQRIQKKFKLKLRLPQFVQNKDTNRIMDLFDPTKKMSKSSKNQNGVIYLDDPKEVVVKKIRQATTDSFNKIRFAPKTQPGVTNMLTILKALLKEPVNQSLTNQLGNDLEAYFSTKSYLDLKNALTEATVNLLVNIQRKREQISREQVFNCLQAGKNQAQATARTTLALFYDGFGLGSQNIK” it is “not failed”.
